Measured values as given in PMC3447759.

Legend:
[1] = molecular target: GAGE12I (Lumier fusion, HEK293) (human); test: pull-down; Lumier (luminescence-based mammalian interactome mapping): protein A and Renilla luciferase fusions co-expressed in HEK293, lysed in 20 mM Tris-HCl pH 7.5, 250 mM NaCl, 1% Triton X-100, 10 mM EDTA, 10 mM DTT with Benzonase; protein A fusions isolated on IgG-coated magnetic beads …; luciferase bound/input normalised to a protein A dimer control and given as Z scores; both orientations
GAGE12I = test: EMSA; conditions: EMSA: 20 mM Tris pH 7.4, 50 mM NaCl, 1 mM DTT, 5 min or as indicated, 20 C, 1 pg/ul DNA. Calf thymus DNA-cellulose pull-downs (P1, P2; undefined DNA, not …)

Sequence of GAGE12I (Lumier fusion, HEK293) (human) (A1L429 whole entry, the tested form may be a part): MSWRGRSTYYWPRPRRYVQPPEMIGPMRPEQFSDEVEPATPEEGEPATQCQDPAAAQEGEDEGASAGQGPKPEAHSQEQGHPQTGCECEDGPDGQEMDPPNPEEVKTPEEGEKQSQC

Row | Substance | Z score [1] | K half (GAGE12I)
1 | full-length GCL (Lumier fusion, HEK293) (from UniProt Q96IK5 1-515) (natural protein) | 3.4 to 5.3 | –
2 | pUC19 90-bp EcoRI-PvuII fragment | – | < 7.3 µM
